Source: PMC4379015, “Chemical and Thermal Unfolding of a Global Staphylococcal Virulence Regulator with a Flexible C-Terminal End” (PLoS ONE, 2015)

Key:
[1] = tested on: rSarA (Staphylococcus aureus strain Newman); assay: EMSA; settings: Gel shift buffer not stated (performed as reported earlier); rSarA kept in buffer A: 20 mM phosphate pH 8.0, 100 mM NaCl, 5% glycerol; binding temperature not …
[2] = molecular target: the molecule itself; assay: SEC; analytical gel filtration of rSarA (20 uM) without denaturant; apparent mass from the elution volumes of monomeric marker proteins

hla DNA
K half [1]: 286 nM

B1: rSarA (a C-terminally histidine-tagged SarA) (natural protein)
chain: MAITKINDCFELLSMVTYADKLKSLIKKEFSISFEEFAVLTYISENKEKEYYLKDIINHLNYKQPQVVKAVKILSQEDYFDKKRNEHDERTVLILVNAQQRKKIESLLSRVNKRITEANNEIEL
notes: the cloning attached eight additional residues at the C-terminal end of SarA; Leu 125 and Glu 126 of rSarA lie in the tag; also called recombinant SarA; not shown: His6 (eight additional residues including six histidine residues), C-terminal, kept
stoichiometry N [2]: 2
